Data from the nanobody polyreactivity screen of Harvey et al. (2022).

Experiment: yeast display, Sf9 membrane polyspecificity reagent, FACS + sequencing; frameworks hold sequencing errors
Summary of the method: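 A synthetic nanobody library was expressed on Saccharomyces cerevisiae BJ5465 by galactose induction for 36–48 hours. The library was stained for 1 hour at 4 °C with 10% biotinylated, detergent-solubilized Sf9 membrane reagent and enriched with streptavidin microbeads before FACS. Low and high (top ~1%) gates were set on anti-HA fluorescence for expression and streptavidin fluorescence for reagent binding, and each polyreactivity label reflects the gate of origin.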

Row | Sequence | polyreactivity (PSR sort gate)
1 | QVQLVESGGGLVQAGGSLRLSCAASGSTFFYKAMGWYRPAPGKERELVAVISSRGTSTYYADSVKGRFTISRDNAKNTVYLQMNSLKPEDTAVYYCAAVQIRHTATLLHKPGYYWGQGTQVTVSS | high polyreactivity
2 | QVQLVESGGGLVQAGGSLRLSCAASGSIFGWYAMGWYRQAPGKERELVATISSGGGNTYYADAVKGRFTISRDNAKNTVYLQMNSLKPEDTAVYYCNASPGPDSRLAEFDYWGQGTQVTVSS | low polyreactivity
3 | QVQLVESGGGLVQAGGSLRLSCAASGSIFSSNAMGWSRQAPGKERELVASIRRGGSTYYADSVKGRFTISRDNAKNTVYLQMNSLKPEDTAVYDCARRYVPWYATYDHWGQGTQVTVSS | high polyreactivity
4 | QVQLVESGGGLVQAGGSLRLSCAASGSIFWIYAMGCYRQAPGKERELVATITRRGGSTYYADSVKGRFTISRDNAKNTVYLQMNSLKPEDTAVYYCATEPGYTYLTSYKYDYWGQGTQVTVSS | low polyreactivity
5 | QVQLVESGGGLVQAGGSLRLSCAASGRSFKYNAMGWYRQAPGKERELVAAISISGGSTYYADSVKGRFTISRDNAKNTVYLQMNSLKPEDTAVYYCNDDTYYLSDYVTFDYWGQGTQVTVSS | low polyreactivity
6 | QVQLVESGGGLVQAGGSLRLSCAASGRIFTYNAMVWYRQAPGKERELVAVITSGGSTYYADSVKGRFTISRDNAKNTVYLQMNSLKPEDTAVYYCAARVWGSSQYYYWGQGTQVTVSS | low polyreactivity
7 | QVQLVESGGGLVQAGGSLRLSCAASGSTFDSNAMGWYRQAPGKERELVAAIRFSGGSTNYADSVKGRFTISRDKAKNTVYLQINSLKPEDTAVYYCAARYPNLRSRWYYYWGQGPQVTVSS | high polyreactivity
8 | QVQLVESGGGLVQAGGSLRISCAPSGGILYHYVMGWYRQAPGTERELVAAISRAGRTYYADSVKGRFTISRDNAKNTVYLQMNSLKPEDTAVYYCNAYFRYFYWGLGTQVTVSS | high polyreactivity
9 | QVQLVESGGGLVQAGGSLRLSCAASGRTLAPYAMGWYRQAPGKERELVAISTIGGSTYYADSVKGRFTISRDNAKNTVYLQMNSLKPEDTAVYYCAADGNSTGVYLDGGEGFAYDYWGQGTQVTVSS | low polyreactivity
10 | QVQLVESGGGLVQAGGSLRLSCAASGRNFSRYALGWYRQAPGKERELVAAINNGGSTYYADSVKGRFTISRDNAMNTVYLQMNSLKPEDTALYYCAKLWWSNFKPVEYWGQGTQVTVSS | low polyreactivity
11 | QVQLVESGRGLVLAGGSLRLSCAASGFIFSYNAMGSYRLAPGKERELVAAISSSGGTTYYADSVKGRFTISRDNAKNTVYLQMNSLKPEDTAVYYCAADGRTYHHHDCGWYRYDYWGQGSQVTVSS | low polyreactivity
12 | QVQLVESGGGLDQAGGSLRLSCAASGSTFVFYAMVWYIQAPGKEREFVAAITNSGSNTYYADSVKGRFTISRDNAKMTVNLQMNSLKPEDTAVYYCAARPFGRYRGRYYYWGQGTQVTVSS | high polyreactivity
13 | QVQLVESGGGLVQAGGSLRLICAASGRTYHYYTLGWYRQSPGKERELVARISLGVGSTYYADSVKGRFTISRDNAKNTVDLQMYTLIPEDTAVYYCNAVWYKSFVKGVYGRVDWGQGTQVTVSS | low polyreactivity
14 | QVQLVESGGGLVQAGGSLRLSCAASGRIFRGYTMGGYRQAPGKERELVADITKRGGSTDYADSVKGRFTISRDNAKNTVYLQMNSLKPEDTEVYSCAARGPTFGVDYGYWGQGTQVTGSS | high polyreactivity
15 | QVQLVESGGGLVQAGGILRLSCAASGFTFVGNAMGWYRKAAGKERELVATITSGGNTKYADSVKGRFTISRDNAKNTVYLQMNSLTPEDTAVYYCAAAKYNYRRFKYWGQGTQVTVSS | low polyreactivity
16 | QVQLVESGGGLVQAGGSRRLCCAASGITLPVYGMGWYIQAPGKERELVAVIDIVGITNYADSVKGRFPISRDNAKNTVYLMMNSLKPEDTAVYYCAKRYVYIADGGEYYYLGQGTQVTVSS | low polyreactivity

Row | Sequence | polyreactivity (PSR sort gate)
17 | QVQLVESAGGLVQEGGSLRIRCAASGRIYQLYTMGGYRQAPGKERELDAAITTGTSTSYAYSVKGRFTISRDNAKNTVYLLMYSLKPVDTAFYFCNKGSVSYYSVFVPYESDYGGQGTQVTVSS | low polyreactivity
18 | QFQLVESGGGLVQAGGSLRLSCAASGLIFVINAMGWYRQAPGKERELDATISSGVSTNYADSVKGRFTISRDNAKNTVYLQMNSLKPEDTAVYYCNKDGVVEVRFTVRQEYDYWGQGTQVTVSS | low polyreactivity
19 | QVQLVESGGGLVQAGGSLRLSCAASGRTFRPYAMGWYRQAPGKERELVAAITSGVSTYYADSVKGRFTISRDNAKNTVYLQMNSLKPEDTAVYYCARGYLRSYRWSYTTRMGYWVQGTQVTVSS | high polyreactivity
20 | QVQLVESGGGLVQAGGSLRLSCAASGSTFSWYTMGWYRQAPGKERELVAAISWSGGRTYYADSVKGRFTISRDNAKNTVYLQMNSLKPEDTAVYYCAAYDYWYSLGDYQFYYSGQGTQVTVSS | low polyreactivity
21 | QVQLVESGGGLVQAGGSLRLSCAASGRIFRSNAIGWYRQAPGKERELVSVITWCGGSTYYADSVKGRFTITRDTAKNTVYIQMNSLKPEDTAVYYCAKRRAAVNGRSYYYYWGQGTQVTVSS | high polyreactivity
22 | QVQLVESGGGLVQAGGSLRLSCAASGRIFKKNAMGWYRQAPGKERELVAAISARGGSTYYADSVKGRFTISRDNAKNTVYLQMNSLKPEDTAVYYCAADEVDESIHYYTFDYWGQGTQVTVSS | high polyreactivity
23 | QVQLVESGGGLVQAGGSLRLSCAASGRTFYWYAMGWYRQAPGKERELVAAIRWSTGSTYYADSVKGRFTISRDNAKNTVYLQMNSLKPEDTAVYYCAATRPSWRYNYWGQGTQVTVSS | high polyreactivity
24 | QVQLVESGGGLVQAGGSLRVSCAASGFTFGYYGMGWYRQAPGKERELVAAISWSGGSTYYADSVKGRFTISRDNAKYTVYLQMNSLKPEVTAVYYCNADYAGFYQRRYIEDDYWGQGTQVTVSS | low polyreactivity
25 | QVQLVDSGGGLVQAGGSLRLSCAASGSTFVYYAMGWYRQAPGKERELVAAITWNGGSTYYADSVKGRFTISRDNAKNTVYLQMNSLKPEDTAVYYCNAEYPVYFEGYPYYWDYWGDSWGQGTQVTVSS | high polyreactivity
26 | QVQLVESGGGLVQAGGSLRLSCAASGRTLPGYVMGWYRQEPGKERELVSTISSGDRTNYADSVKGRFTISRDNAKNTVYLQMNSLKPEETAVYYCAAPYVASGYYIWSPWLYDSWGQGTQVTVSS | low polyreactivity
27 | QVQLVESGGGLVQAGGSLRLSCAASGSIFYYYTMGWYRQAPGKERELVAAINSGGNTYYADSVKGRFTISRDNAKNTVYLQMNSLKPEDTAVYYCAAGPLYYDYDYWGQGTQVTVSS | low polyreactivity
28 | QVQLVESGGGLVQAGGSLRLSCAASGIIFYKNAMGWYRQAPGKERELVAAISGSGGRTYYADSVKGRFTISRDNAKKTVYLQMNSLKPEDTAVYYCAARKPYRHGYESWGQGTQVTVSS | high polyreactivity
29 | QVQLVESGGGIVQAGGSLRLSCAASGFTYARYAKGWYRQAPGKERELVAAITRRGGSTHYADSVKGRFTISRDNAKNTVYLQMTSLKPEDTAVDYCAAYSLHNYLSEYGDWGQGTQVTVSS | high polyreactivity
30 | QVQLVESGGGLVQAGGSLRLSCAASGRILSRYVMGWYRQAPGKERELVAAISGRATSTYYADSVKGRFTISRDNAKNTVYLQMNSLKPEDTAVYYCATGYKTYAVTLYDYWGQGTQVTVSS | high polyreactivity
31 | QVQLGESGGGLVQAGGSLRLSCAASGRTFDKNAMGWYRQAPGKERELVATISSGGSTYYADSVKGRFTISRDNAKNTVYLQMNSLKPEDTAVYYCNARGVRATRRRYGYWGQGTQVTVSS | low polyreactivity
